Laboratory results: patent US8541373B2, “BChE albumin fusions for the treatment of cocaine abuse” (priority 2009, dated 2013)

System: cocaine
Experiment: Plasma cocaine, benzoylecgonine and ecgonine methyl ester (LC-MS) and cocaine PK after IV cocaine post-AlbuBChE
Type: in vivo, cynomolgus monkeys
Conditions: 0.2 mg/kg IM
Procedure: Blood was placed into K2EDTA blood collection tubes with esterase inhibitor diisopropylfluorophosphate (DFP). Tubes were inverted several times and placed on wet ice upon collection. Samples were centrifuged at 2-8° C. within 45 minutes of collection. The resultant plasma was recovered and a single 200 μL aliquot of plasma was placed into polypropylene tubes. Plasma samples were frozen over dry ice and stored at −75±15° C.
The following outline describes the LC-MS-based assay employed for the measurement of cocaine in plasma samples. Prior to MS analysis, plasma samples, calibration standards and controls were extracted using supported liquid extraction (SLE-ISOLUTE, Biotage). Twenty-five microliters of samples (25 μL) received 150 μl of 5% Ammonium hydroxide and 25 μl internal standard solution (Cocaine-d3). After mixing and transfer to SLE plate, samples were eluted with methylene chloride and evaporated to dryness. After resuspension in 50 μl of reconstitution solution—5% ACM in 10 mM ammonium acetate in water, 10 μl was injected onto Thermo Hypercarb column at 0.5 ml/min. Mobile phase was biphasic. Mass spectrophotometric detection was performed using Api 4000, APCI positive interface and Multiple Reaction Monitoring (MRM). Plasma concentrations of cocaine, benzoylecgonine and ecgonine methyl ester were determined using this assay.
When the data permits, pharmacokinetic parameter values for cocaine and its metabolites were determined using plasma concentration-times profiles for individual animals at all the study days of cocaine administration. […] Specifically the model for non-compartmental analysis with IV bolus input for cocaine and extravascular input for the metabolites.

[1] = cocaine 1 mg/kg IV 2 hr post-AlbuBChE
[2] = cocaine 1 mg/kg IV 2 hr post-AlbuBChE, 5 min after cocaine
[3] = cocaine 1 mg/kg IV 2 hr post-AlbuBChE, 10 min after cocaine
[4] = cocaine 1 mg/kg IV 2 hr post-AlbuBChE, 15 min after cocaine
[5] = cocaine 1 mg/kg IV 2 hr post-AlbuBChE, 20 min after cocaine
[6] = cocaine 1 mg/kg IV 2 hr post-AlbuBChE, 30 min after cocaine
[7] = cocaine 1 mg/kg IV 2 hr post-AlbuBChE, 40 min after cocaine
[8] = cocaine 1 mg/kg IV 2 hr post-AlbuBChE, 60 min after cocaine
[9] = cocaine 1 mg/kg IV 48 hr post-AlbuBChE
[10] = cocaine 1 mg/kg IV 48 hr post-AlbuBChE, 5 min after cocaine
[11] = cocaine 1 mg/kg IV 48 hr post-AlbuBChE, 10 min after cocaine
[12] = cocaine 1 mg/kg IV 48 hr post-AlbuBChE, 15 min after cocaine
[13] = cocaine 1 mg/kg IV 48 hr post-AlbuBChE, 20 min after cocaine
[14] = cocaine 1 mg/kg IV 48 hr post-AlbuBChE, 30 min after cocaine
[15] = cocaine 1 mg/kg IV 48 hr post-AlbuBChE, 40 min after cocaine
[16] = cocaine 1 mg/kg IV 48 hr post-AlbuBChE, 60 min after cocaine
[17] = cocaine 1 mg/kg IV 96 hr post-AlbuBChE
[18] = cocaine 1 mg/kg IV 96 hr post-AlbuBChE, 5 min after cocaine
[19] = cocaine 1 mg/kg IV 96 hr post-AlbuBChE, 10 min after cocaine
[20] = cocaine 1 mg/kg IV 96 hr post-AlbuBChE, 15 min after cocaine
[21] = cocaine 1 mg/kg IV 96 hr post-AlbuBChE, 20 min after cocaine
[22] = cocaine 1 mg/kg IV 96 hr post-AlbuBChE, 30 min after cocaine
[23] = cocaine 1 mg/kg IV 96 hr post-AlbuBChE, 40 min after cocaine
[24] = cocaine 1 mg/kg IV 96 hr post-AlbuBChE, 60 min after cocaine
[25] = cocaine 1 mg/kg IV 120 hr post-AlbuBChE
[26] = cocaine 1 mg/kg IV 120 hr post-AlbuBChE, 5 min after cocaine
[27] = cocaine 1 mg/kg IV 120 hr post-AlbuBChE, 10 min after cocaine
[28] = cocaine 1 mg/kg IV 120 hr post-AlbuBChE, 15 min after cocaine
[29] = cocaine 1 mg/kg IV 120 hr post-AlbuBChE, 20 min after cocaine
[30] = cocaine 1 mg/kg IV 120 hr post-AlbuBChE, 30 min after cocaine

AlbuBChE
Mean benzoylecgonine AUC(0-t) [1]: 3136 ng·min/mL
Mean cocaine AUC(0-t) [1]: 11878 ng·min/mL
Mean cocaine C0 [1]: 628 ng/mL
Ecgonine methyl ester plasma concentration (mean) [2]: 51.6 ng/mL
Mean benzoylecgonine plasma concentration [2]: 50.6 ng/mL
Mean cocaine plasma concentration [2]: 481 ng/mL
Ecgonine methyl ester plasma concentration (mean) [3]: 81.9 ng/mL
Mean benzoylecgonine plasma concentration [3]: 49.7 ng/mL
Mean cocaine plasma concentration [3]: 370 ng/mL
Ecgonine methyl ester plasma concentration (mean) [4]: 83.2 ng/mL
Mean benzoylecgonine plasma concentration [4]: 50.4 ng/mL
Mean cocaine plasma concentration [4]: 273 ng/mL
Ecgonine methyl ester plasma concentration (mean) [5]: 154 ng/mL
Mean benzoylecgonine plasma concentration [5]: 65.1 ng/mL
Mean cocaine plasma concentration [5]: 227 ng/mL
Ecgonine methyl ester plasma concentration (mean) [6]: 261 ng/mL
Mean benzoylecgonine plasma concentration [6]: 28.6 ng/mL
Mean cocaine plasma concentration [6]: 67.0 ng/mL
Ecgonine methyl ester plasma concentration (mean) [7]: 120 ng/mL
Mean benzoylecgonine plasma concentration [7]: 58.0 ng/mL
Mean cocaine plasma concentration [7]: 115 ng/mL
Ecgonine methyl ester plasma concentration (mean) [8]: 120 ng/mL
Mean benzoylecgonine plasma concentration [8]: 60.5 ng/mL
Mean cocaine plasma concentration [8]: 58.6 ng/mL
Mean benzoylecgonine AUC(0-t) [9]: 1989 ng·min/mL
Mean cocaine AUC % Extrap [9]: 15.1%
Mean cocaine AUC(0-t) [9]: 7713 ng·min/mL
Mean cocaine AUC(0-∞) [9]: 9094 ng·min/mL
Mean cocaine C0 [9]: 274 ng/mL
Mean cocaine CI [9]: 110 mL/min/kg
Mean cocaine Vss [9]: 3.503 L/kg
Mean cocaine t½ [9]: 21.2 min
Ecgonine methyl ester plasma concentration (mean) [10]: 21.1 ng/mL
Mean benzoylecgonine plasma concentration [10]: 27.3 ng/mL
Mean cocaine plasma concentration [10]: 235 ng/mL
Ecgonine methyl ester plasma concentration (mean) [11]: 19.5 ng/mL
Mean benzoylecgonine plasma concentration [11]: 29.4 ng/mL
Mean cocaine plasma concentration [11]: 203 ng/mL
Ecgonine methyl ester plasma concentration (mean) [12]: 23.9 ng/mL
Mean benzoylecgonine plasma concentration [12]: 29.0 ng/mL
Mean cocaine plasma concentration [12]: 187 ng/mL
Ecgonine methyl ester plasma concentration (mean) [13]: 25.8 ng/mL
Mean benzoylecgonine plasma concentration [13]: 28.2 ng/mL
Mean cocaine plasma concentration [13]: 146 ng/mL
Ecgonine methyl ester plasma concentration (mean) [14]: 33.9 ng/mL
Mean benzoylecgonine plasma concentration [14]: 37.1 ng/mL
Mean cocaine plasma concentration [14]: 121 ng/mL
Ecgonine methyl ester plasma concentration (mean) [15]: 50.7 ng/mL
Mean benzoylecgonine plasma concentration [15]: 36.9 ng/mL
Mean cocaine plasma concentration [15]: 77.8 ng/mL
Ecgonine methyl ester plasma concentration (mean) [16]: 37.0 ng/mL
Mean benzoylecgonine plasma concentration [16]: 35.6 ng/mL
Mean cocaine plasma concentration [16]: 43.2 ng/mL
Mean benzoylecgonine AUC(0-t) [17]: 3270 ng·min/mL
Mean cocaine AUC % Extrap [17]: 14.9%
Mean cocaine AUC(0-t) [17]: 11145 ng·min/mL
Mean cocaine AUC(0-∞) [17]: 13008 ng·min/mL
Mean cocaine C0 [17]: 451 ng/mL
Mean cocaine CI [17]: 78.1 mL/min/kg
Mean cocaine Vss [17]: 2.506 L/kg
Mean cocaine t½ [17]: 21.1 min
Ecgonine methyl ester plasma concentration (mean) [18]: 26.4 ng/mL
Mean benzoylecgonine plasma concentration [18]: 49.7 ng/mL
Mean cocaine plasma concentration [18]: 360 ng/mL
Ecgonine methyl ester plasma concentration (mean) [19]: 39.4 ng/mL
Mean benzoylecgonine plasma concentration [19]: 47.7 ng/mL
Mean cocaine plasma concentration [19]: 301 ng/mL
Ecgonine methyl ester plasma concentration (mean) [20]: 24.5 ng/mL
Mean benzoylecgonine plasma concentration [20]: 52.6 ng/mL
Mean cocaine plasma concentration [20]: 255 ng/mL
Ecgonine methyl ester plasma concentration (mean) [21]: 29.8 ng/mL
Mean benzoylecgonine plasma concentration [21]: 55.1 ng/mL
Mean cocaine plasma concentration [21]: 189 ng/mL
Ecgonine methyl ester plasma concentration (mean) [22]: 49.8 ng/mL
Mean benzoylecgonine plasma concentration [22]: 56.5 ng/mL
Mean cocaine plasma concentration [22]: 165 ng/mL
Ecgonine methyl ester plasma concentration (mean) [23]: 50.2 ng/mL
Mean benzoylecgonine plasma concentration [23]: 55.2 ng/mL
Mean cocaine plasma concentration [23]: 118 ng/mL
Ecgonine methyl ester plasma concentration (mean) [24]: 43.4 ng/mL
Mean benzoylecgonine plasma concentration [24]: 57.8 ng/mL
Mean cocaine plasma concentration [24]: 60.5 ng/mL
Mean benzoylecgonine AUC(0-t) [25]: 3583 ng·min/mL
Mean cocaine AUC % Extrap [25]: 16.1%
Mean cocaine AUC(0-t) [25]: 11611 ng·min/mL
Mean cocaine AUC(0-∞) [25]: 14059 ng·min/mL
Mean cocaine C0 [25]: 391 ng/mL
Mean cocaine CI [25]: 72.5 mL/min/kg
Mean cocaine Vss [25]: 2.338 L/kg
Mean cocaine t½ [25]: 23.0 min
Ecgonine methyl ester plasma concentration (mean) [26]: 18.9 ng/mL
Mean benzoylecgonine plasma concentration [26]: 55.1 ng/mL
Mean cocaine plasma concentration [26]: 349 ng/mL
Ecgonine methyl ester plasma concentration (mean) [27]: 28.9 ng/mL
Mean benzoylecgonine plasma concentration [27]: 46.9 ng/mL
Mean cocaine plasma concentration [27]: 312 ng/mL
Ecgonine methyl ester plasma concentration (mean) [28]: 27.6 ng/mL
Mean benzoylecgonine plasma concentration [28]: 53.1 ng/mL
Mean cocaine plasma concentration [28]: 267 ng/mL
Ecgonine methyl ester plasma concentration (mean) [29]: 34.5 ng/mL
Mean benzoylecgonine plasma concentration [29]: 55.9 ng/mL
Mean cocaine plasma concentration [29]: 218 ng/mL
Ecgonine methyl ester plasma concentration (mean) [30]: 136 ng/mL
Mean benzoylecgonine plasma concentration [30]: 64.2 ng/mL
Mean cocaine plasma concentration [30]: 160 ng/mL
